Experimental data: paper PMC8248988, “A signal capture and proofreading mechanism for the KDEL-receptor explains selectivity and dynamic range in ER retrieval” (eLife, 2021)
Substitutions are numbered along the chain they refer to. Ends that are not written are not given here.

Tests used:
chicken KDELR2 = target: T1, chicken KDELR2 (Gallus gallus, UniProt Q5ZKX9); assay: Competition binding assay, [3H]-TAEHDEL against unlabelled peptide; conditions: for IC50: competition with [3H]-TAEHDEL, free (COOH) or amidated (CONH) C-terminus, pH 5.4, read-out: Competitor peptide IC50
T1 construct: GFP (of the pDDGFP vector); made in house; host or cells: Saccharomyces cerevisiae Bj5460
T1 sequence (Q5ZKX9 1-212): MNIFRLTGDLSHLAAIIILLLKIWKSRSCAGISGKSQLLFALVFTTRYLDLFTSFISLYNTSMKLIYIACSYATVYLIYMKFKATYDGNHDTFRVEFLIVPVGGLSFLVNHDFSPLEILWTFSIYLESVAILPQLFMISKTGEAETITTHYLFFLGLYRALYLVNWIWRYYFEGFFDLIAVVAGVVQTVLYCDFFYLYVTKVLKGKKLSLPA
Description: (§1) Figure 1. ER retrieval signal abundance and affinity are not correlated. (a) Sequence logos for ER resident proteins with C-terminal KDEL retrieval signals and variants thereof calculated using frequency or protein abundance ([Itzhak et al., 2017]; [Itzhak et al., 2016]). (b) Combined cellular concentrations of ER resident proteins with canonical KDEL, RDEL, and HDEL retrieval sequences in HeLa cells and mouse brain. (c) Competition binding assays for [^3H]-TAEHDEL and unlabelled TAEKDEL, TAERDEL, and TAEHDEL to the KDEL receptor. IC50 values for the competing peptides were used to calculate the apparent KDwith the Cheng-Prusoff equation ([Cheng and Prusoff, 1973]). (d) Endogenous KDEL receptor redistribution was measured in COS-7 cells in the absence (-ligand) or presence of K/R/H/A/DDEL (mScarlet-xDEL^sec). TGN46 was used as a Golgi marker. Scale bar is 10 µm. (e) The mean difference for K/R/H/A/DDEL comparisons against the shared no ligand control are shown as Cummings estimation plots. The individual data points for the fraction of KDEL receptor fluorescence in the Golgi are plotted on the upper axes with sample sizes and p values. Figure 1—source data 1. Source data for the ligand-induced KDELR receptor retrieval assays in Figure 1e. Figure 1—figure supplement 1. Abundance of ER resident proteins and chaperones in human cells and mouse brain. (a) The mean concentration of ER resident chaperones with the indicated ER retrieval sequence variant is plotted in the bar graph ([Itzhak et al., 2017]; [Itzhak et al., 2016]). […] Endogenous ER chaperone secretion was measured by western blotting after challenge with different retrieval signals, and plotted as a bar graph showing mean ± SEM (n = 3). […] (a) Distribution of human KDELR1 and (b) KDELR2 was measured in COS-7 cells in the absence (-ligand) or presence of K/R/H/A/DDEL retrieval signals (K/R/H/A/DDEL^sec). […] The fraction of KDEL receptor localised to the Golgi was measured before (no ligand) and after challenge with different retrieval signals as indicated. […]

human KDELR1 = target: T2, human KDELR1 (Homo sapiens, UniProt P24390); assay: ER retrieval assay, WT KDELR1-GFP; format: cell-based; conditions: COS-7 cells, WT human KDEL receptor-GFP with mScarlet ligand
T2 construct: expressed in transfected cells; host or cells: COS-7
Description: To create KDELR1-GFP and KDELR2-GFP, the reading frames for Homo sapiens KDELR1 (Uniprot: P24390) and KDELR2 (Uniprot: P33947) were cloned into the pEF5/FRT low level mammalian expression vector with a C-terminal 20 amino acid linker made up of 5 copies of Gly-Ser-Ser-Ser followed by GFP. Specific point mutations were introduced using the Quickchange protocol (Stratagene) and are described in the key resources table and figures. To create the mScarlet-KDEL^sec ligand construct, mScarlet with an N-terminal hGH signal peptide and the 16 C-terminal residues of human BiP at its C-terminus, containing the KDEL signal, was cloned into the pcDNA3.1 vector. […] The Golgi marker protein TGN46 was detected by antibody (sheep anti-TGN46 AHP500G; AbD Serotec) and an Alexa 647 conjugated secondary anti-sheep secondary (A-21448, Invitrogen). In Figure 1d and e, endogenous KDELR was detected by antibody (mouse anti-KDELR ADI-VAA-PT048; Enzo Life Sciences) and Alexa 488 conjugated anti-mouse secondary antibody (A-21202, Invitrogen). For retrieval assays in other figures, KDELR-GFP fusion proteins were directly detected by fluorescence. The mScarlet-xDEL fusion proteins were directly detected by fluorescence. […] The fraction of KDEL receptor in the Golgi apparatus was calculated by dividing the Golgi signal by the total cell signal. […]

[1] = system: endogenous KDEL receptor in COS-7 cells; assay: ER retrieval assay, endogenous KDEL receptor redistribution; format: cell-based, African green monkey; conditions: COS-7 cells
Description: as §1, with “1.” for “1. Abundance of ER resident proteins and chaperones in human cells and mouse brain. (a) The mean concentration of ER resident chaperones with the indicated ER retrieval sequence variant is plotted in the bar graph ([Itzhak et al., 2017]; [Itzhak et al., 2016]).”
To create KDELR1-GFP and KDELR2-GFP, the reading frames for Homo sapiens KDELR1 (Uniprot: P24390) and KDELR2 (Uniprot: P33947) were cloned into the pEF5/FRT low level mammalian expression vector with a C-terminal 20 amino acid linker made up of 5 copies of Gly-Ser-Ser-Ser followed by GFP. […]

[2] = target: [3H]-TAEKDEL retrieval-signal peptide (UniProt P11021); assay: in vitro binding assay of Bräuer et al. 2019 (not described here; presumably the same [3H]-TAEKDEL filter-binding assay); conditions: pH 6.4; cited from earlier work
[3] = target: [3H]-TAEKDEL retrieval-signal peptide (UniProt P11021); assay: radioligand filter-binding assay, direct titration (scintillation counting); conditions: pH 5.4; 20°C; 40 mM Sodium Chloride; 20 mM MES pH 5.4 (default); the buffers used for the other pH values of Figure 3f (up to pH 7.0) are not stated
[4] = target: [3H]-TAEHDEL retrieval-signal peptide K to H at position -4 relative to TAEKDEL (K651H in human BiP numbering) (UniProt P11021); assay: as above; conditions: 20°C, 40 mM Sodium Chloride, 20 mM MES pH 5.4 (default), the buffers used for the other pH values of Figure 3f (up to pH 7.0) are not stated
[5] = target: TAEHDEL retrieval-signal peptide (unlabelled) K to H at position -4 relative to TAEKDEL (K651H in human BiP numbering) (UniProt P11021); assay: radioligand filter-binding assay, competition of unlabelled peptide against [3H]-TAEHDEL; conditions: pH 5.4; 20°C; 40 mM Sodium Chloride; 20 mM MES pH 5.4 (default assay buffer 'unless stated otherwise'; pH not restated for this experiment)
[6] = target: TAEKDEL retrieval-signal peptide (unlabelled) (UniProt P11021); assay: as above; conditions: pH 5.4; 20°C; 40 mM Sodium Chloride; 20 mM MES pH 5.4 (default assay buffer 'unless stated otherwise'; pH not restated for this experiment)
[7] = target: TAERDEL retrieval-signal peptide (unlabelled) K to R at position -4 relative to TAEKDEL (K651R in human BiP numbering) (UniProt P11021); assay: as above; conditions: pH 5.4; 20°C; 40 mM Sodium Chloride; 20 mM MES pH 5.4 (default assay buffer 'unless stated otherwise'; pH not restated for this experiment)
[8] = target: T3, TAEHDEL retrieval signal peptide; assay: [3H]-peptide filter binding assay, pH 5.4
T3 chain: TAEHDEL

[9] = target: T4, TAEKDEL retrieval signal peptide (BiP) (Homo sapiens); assay: [3H]-peptide filter binding assay, pH 5.4
T4 chain: TAEKDEL

[3H]-TAEHDEL retrieval-signal peptide K to H at position -4 relative to TAEKDEL (K651H in human BiP numbering), sequence (P11021 whole entry K651H, looked up, tested part not stated): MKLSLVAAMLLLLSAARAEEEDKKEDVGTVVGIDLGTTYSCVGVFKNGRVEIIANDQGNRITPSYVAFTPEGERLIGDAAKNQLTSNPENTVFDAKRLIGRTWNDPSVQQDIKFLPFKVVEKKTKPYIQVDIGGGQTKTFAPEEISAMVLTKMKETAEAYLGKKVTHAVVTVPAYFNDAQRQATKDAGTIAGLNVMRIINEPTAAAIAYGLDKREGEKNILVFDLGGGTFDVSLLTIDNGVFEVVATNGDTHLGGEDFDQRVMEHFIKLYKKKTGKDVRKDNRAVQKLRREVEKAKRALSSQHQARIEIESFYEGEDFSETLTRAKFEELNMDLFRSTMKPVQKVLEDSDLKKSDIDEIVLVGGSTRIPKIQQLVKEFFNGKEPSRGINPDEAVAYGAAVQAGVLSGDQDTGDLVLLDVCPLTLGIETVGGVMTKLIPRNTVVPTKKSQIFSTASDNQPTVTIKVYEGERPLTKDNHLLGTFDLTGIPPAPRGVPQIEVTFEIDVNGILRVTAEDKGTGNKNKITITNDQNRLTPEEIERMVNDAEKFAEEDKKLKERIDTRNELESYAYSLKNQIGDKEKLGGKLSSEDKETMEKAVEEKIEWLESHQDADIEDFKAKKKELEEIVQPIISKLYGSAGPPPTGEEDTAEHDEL
[3H]-TAEKDEL retrieval-signal peptide, sequence (P11021 whole entry, looked up, tested part not stated): as the sequence (P11021 whole entry K651H, looked up, tested part not stated) above, with H651K counted along it
T2 sequence (P24390 whole entry): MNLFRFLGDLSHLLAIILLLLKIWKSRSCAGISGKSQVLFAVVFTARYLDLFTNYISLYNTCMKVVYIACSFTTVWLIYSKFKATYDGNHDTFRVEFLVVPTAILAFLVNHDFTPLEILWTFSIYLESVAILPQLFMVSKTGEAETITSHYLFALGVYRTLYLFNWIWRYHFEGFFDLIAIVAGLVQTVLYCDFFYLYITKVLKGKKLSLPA
TAERDEL retrieval-signal peptide (unlabelled) K to R at position -4 relative to TAEKDEL (K651R in human BiP numbering), sequence (P11021 whole entry K651R, looked up, tested part not stated): as the sequence (P11021 whole entry K651H, looked up, tested part not stated) above, with H651R counted along it
TAEHDEL retrieval-signal peptide (unlabelled) K to H at position -4 relative to TAEKDEL (K651H in human BiP numbering), sequence (P11021 whole entry K651H, looked up, tested part not stated): as the sequence (P11021 whole entry K651H, looked up, tested part not stated) above
TAEKDEL retrieval-signal peptide (unlabelled), sequence (P11021 whole entry, looked up, tested part not stated): as the sequence (P11021 whole entry K651H, looked up, tested part not stated) above, with H651K counted along it

TAEKDEL-OH [KDEL, TAEKDEL]
IC50 (chicken KDELR2): 152 ± 21.7 µM

TAEHDEL-NH2 [HDEL^CONH, TAEHDEL-CONH]
IC50 (chicken KDELR2): 1750 ± 170 µM

TAEKDEL-CONH [KDEL^CONH, C-amidated peptide variant]
binding of C-terminally amidated peptide to wild-type receptor (in words) (chicken KDELR2; amidated C-terminus): completely abolished binding

pcDNA3.1 hGHss-mScarlet-S. cerevisiae BiP667-682 [FEHDEL]
ligand-induced receptor retrieval to the ER (in words) (human KDELR1): functional

TAEKDEL
localisation of the mScarlet ligand (in words) [1]: retrieved to the ER

KDEL receptor 2 (KDELR2, ER lumen protein-retaining receptor 2), wild type
fraction of maximal binding [2]: <20%
KD [3]: 1.9 ± 0.46 µM
KD ([4]; pH 5.4): 0.26 ± 0.04 µM
fraction of maximal binding ([4]; pH 6.4): ~ 60% maximal binding
KD (apparent, from IC50) [5]: KD 0.24 µM
KD (apparent, from IC50) [6]: KD 1.94 µM
KD (apparent, from IC50) [7]: KD 2.71 µM

B1: KDEL receptor 2 (protein)
chain: T1 sequence (Q5ZKX9 1-212) with E117A
Kd [8]: 0.52 µM
Kd [9]: ~9.3 µM

B2: KDEL receptor 2 (protein)
chain: T1 sequence (Q5ZKX9 1-212) with W120F
Kd [8]: 5.5 µM

B3: KDEL receptor 2 (protein)
chain: T1 sequence (Q5ZKX9 1-212) with E117D
Kd [8]: 0.52 µM
Kd [9]: 2.1 µM
